According to article PMC10850085 (Nature Communications, 2024):

B1: murine TpoR ectodomain, monomeric (TpoR_(1-479)) [modified: N-linked glycans at N117, N178, N349; tryptophan mannosylation (W465, W468); N-linked glycans at N117, N178, N349; tryptophan mannosylation (W465, W468)] [mouse] / peptide version … (parent complex)
chain 1: QDVFLLALGTEPLNCFSQTFEDLTCFWDEEEAAPSGTYQLLYAYRGEKPRACPLYSQSVPTFGTRYVCQFPAQDEVRLFFPLHLWVKNVSLNQTLIQRVLFVDSVGLPAPPRVIKARGGSQPGELQIHWEAPAPEISDFLRHELRYGPTDSSNATAPSVIQLLSTETCCPTLWMPNPVPVLDQPPCVHPTASQPHGPAPFLTVKGGSCLVSGLQAGKSYWLQLRSQPDGVSLRGSWGPWSFPVTVDLPGDAVTIGLQCFTLDLKMVTCQWQQQDRTSSQGFFRHSRTRCCPTDRDPTWEKCEEEEPRPGSQPALVSRCHFKSRNDSVIHILVEVTTAQGAVHSYLGSPFWIHQAVLLPTPSLHWREVSSGRLELEWQHQSSWAAQETCYQLRYTGEGREDWKVLEPSLGARGGTLELRPRARYSLQLRARLNGPTYQGPWSAWSPPARVSTGSE
chain 2: IEGPTLRQWLAARAGGIEGPTLRQWLAARA
B2: monomeric version of the romiplostim peptide [modified: N-terminal biotin moiety; N-terminal biotin moiety] / murine TpoR ectodomain, monomeric (TpoR_(1-479)) [modified: N-linked glycans at N117, N178, N349; tryptophan mannosylation (W465, … (parent complex)
chain 1: IEGPTLRQWLAARA
chain 2: B1 chain 1

Variants of: B1
Test: SPR; peak response of the last (highest concentration) injection over immobilised romiplostim peptide; concentration not stated for this panel; read off a plot

Row | response [RU] | Variant
1 | ~220 | chain 1 F80A

Variants of: B2
Test: SPR; peak response of the last injection (100 nM TpoR, top concentration of a two-fold dilution series) over immobilised peptide; read off a plot

Row | response [RU] | Variant
2 | ~36 | chain 1 A12L
